Results as given in paper doi:10.1101/2023.09.15.557927.

Target: FITC-labeled BMF peptide (FITC-…)
Assay: fluorescence polarisation

6xHis-tagged LC8 (DYNLL2), sequence (Q96FJ2 whole entry): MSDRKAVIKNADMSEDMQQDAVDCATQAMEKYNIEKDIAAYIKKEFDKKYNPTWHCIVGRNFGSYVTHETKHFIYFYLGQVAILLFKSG

## 6xHis-tagged LC8 (DYNLL2) (from UniProt Q96FJ2 1-89) (natural protein)
  LC8 concentration at 80% saturation of the labeled BMF peptide: 12 µM
